From the RNAGym collection of RNA variant scans (doi:10.1101/gr.219683.116)

B1: mRNA-splicing (parent)
chain: AGUUGCUGCUGGGAGCUCCAGCACAGUGAAAUGGACAGAAGGGCAGAGCAA

Variants of: B1
Assay: exon inclusion enrichment index; higher = more inclusion; WT1 exon 5 minigene, HEK293

Compared with AGUUGAAGAAGGCUGCUCCAGCACAGUGAAAUGGACAGAAGGGCAGAGCAA [C6A U7A C9A U10A G13C A14U], AGUUGAAGAAGGCGGCUCCAGCACAGUGAAAUGGACAGAAGGGCAGAGCAA [C6A U7A C9A U10A G13C A14G] is lower in “exon inclusion enrichment index” value: 1.56 for the first, 1.42 for the second.

First: AGUUGAAGAAGGCCGCUCCAGCACAGUGAAAUGGACAGAAGGGCAGAGCAA [C6A U7A C9A U10A G13C A14C]
Second: AGUUGAAGAAACGAGCUCCAGCACAGUGAAAUGGACAGAAGGGCAGAGCAA [C6A U7A C9A U10A G11A G12C]
The “exon inclusion enrichment index” value of the first is lower: 1.58 for the first, 2.24 for the second.

First: AGUUGAAGAAAUGAGCUCCAGCACAGUGAAAUGGACAGAAGGGCAGAGCAA [C6A U7A C9A U10A G11A G12U]
Second: AGUUGAAGAAAAGAGCUCCAGCACAGUGAAAUGGACAGAAGGGCAGAGCAA [C6A U7A C9A U10A G11A G12A]
The “exon inclusion enrichment index” value of the first is lower: 1.67 for the first, 1.79 for the second.

Compared with AGUUGAAGAAUCGAGCUCCAGCACAGUGAAAUGGACAGAAGGGCAGAGCAA [C6A U7A C9A U10A G11U G12C], AGUUGAAGAAUAGAGCUCCAGCACAGUGAAAUGGACAGAAGGGCAGAGCAA [C6A U7A C9A U10A G11U G12A] is lower in “exon inclusion enrichment index” value: 2.55 for the first, 0.701 for the second.

Compared with AGUUGAAGAAUUGAGCUCCAGCACAGUGAAAUGGACAGAAGGGCAGAGCAA [C6A U7A C9A U10A G11U G12U], AGUUGAAGAAGUUAGCUCCAGCACAGUGAAAUGGACAGAAGGGCAGAGCAA [C6A U7A C9A U10A G12U G13U] is lower in “exon inclusion enrichment index” value: 1.53 for the first, 0.144 for the second.

Going from AGUUGAAGAAGUAAGCUCCAGCACAGUGAAAUGGACAGAAGGGCAGAGCAA [C6A U7A C9A U10A G12U G13A] to AGUUGAAGAAGUCAGCUCCAGCACAGUGAAAUGGACAGAAGGGCAGAGCAA [C6A U7A C9A U10A G12U G13C], the “exon inclusion enrichment index” value rises from 0.633 to 1.06.

Going from AGUUGAAGAAGGGAGCUCCAGCACAGUGAAAUGGAUAGAAGGGCAGAGCAA [C6A U7A C9A U10A C36U] to AGUUGAAGAAUGGAGCUCCAGCACAGUGAAAUGGACAGAAGGGCAGAGCAA [C6A U7A C9A U10A G11U], the “exon inclusion enrichment index” value rises from 0.122 to 2.89.

First: AGUUGAAGAACGGAGCUCCAGCACAGUGAAAUGGACAGAAGGGCAGAGCAA [C6A U7A C9A U10A G11C]
Second: AGUUGAAGAAAGGAGCUCCAGCACAGUGAAAUGGACAGAAGGGCAGAGCAA [C6A U7A C9A U10A G11A]
The “exon inclusion enrichment index” value of the first is higher: 3.21 for the first, 1.96 for the second.

Compared with AGUUGAAGAAGGGAGCUCCAGCACAGUGAAAUGGACAGAAGGGGAGAGCAA [C6A U7A C9A U10A C44G], AGUUGAAGAAGGGAGCUCCAGCACAGUGAAAUGGACAGAAGGGAAGAGCAA [C6A U7A C9A U10A C44A] is higher in “exon inclusion enrichment index” value: 1.03 for the first, 1.49 for the second.

Compared with AGUUGAAGAAGGGAGCUCCAGCACAGUGAAAUGGACAGAAGGGUAGAGCAA [C6A U7A C9A U10A C44U], AGUUGAAGAACUGAGCUCCAGCACAGUGAAAUGGACAGAAGGGCAGAGCAA [C6A U7A C9A U10A G11C G12U] is higher in “exon inclusion enrichment index” value: 0.122 for the first, 1.91 for the second.

First: AGUUGAAGAACCGAGCUCCAGCACAGUGAAAUGGACAGAAGGGCAGAGCAA [C6A U7A C9A U10A G11C G12C]
Second: AGUUGAAGAACAGAGCUCCAGCACAGUGAAAUGGACAGAAGGGCAGAGCAA [C6A U7A C9A U10A G11C G12A]
The “exon inclusion enrichment index” value of the first is higher: 2.68 for the first, 1.98 for the second.

First: AGUUGAAGAAGCUAGCUCCAGCACAGUGAAAUGGACAGAAGGGCAGAGCAA [C6A U7A C9A U10A G12C G13U]
Second: AGUUGAAGAAGCCAGCUCCAGCACAGUGAAAUGGACAGAAGGGCAGAGCAA [C6A U7A C9A U10A G12C G13C]
The “exon inclusion enrichment index” value of the first is lower: 0.355 for the first, 1.06 for the second.

Going from AGUUGAAGAAGCAAGCUCCAGCACAGUGAAAUGGACAGAAGGGCAGAGCAA [C6A U7A C9A U10A G12C G13A] to AGUUGAAGAAGGUAGCUCCAGCACAGUGAAAUGGACAGAAGGGCAGAGCAA [C6A U7A C9A U10A G13U], the “exon inclusion enrichment index” value falls from 1.72 to 0.142.

Going from AGUUGAAGAAGGAAGCUCCAGCACAGUGAAAUGGACAGAAGGGCAGAGCAA [C6A U7A C9A U10A G13A] to AGUUGAAGAAGGCAGCUCCAGCACAGUGAAAUGGACAGAAGGGCAGAGCAA [C6A U7A C9A U10A G13C], the “exon inclusion enrichment index” value falls from 1.97 to 1.04.

Going from AGUUGAAGAAGGGAGCUCCAGCACAGUGAAAUGGACAGAAGGGACGAGCAA [C6A U7A C9A U10A C44A A45C] to AGUUGAAGAAGGGAGCUCCAGCACAGUGAAAUGGACAGAAGGGAUGAGCAA [C6A U7A C9A U10A C44A A45U], the “exon inclusion enrichment index” value falls from 1.9 to 1.71.

Compared with AGUUGAAGAAGGGAGCUCCAGCACAGUGAAAUGGACAGAAGGGAGGAGCAA [C6A U7A C9A U10A C44A A45G], AGUUGAAGAAGGGAGCUCCAGCACAGUGAAAUGGACAGAAGGGGGGAGCAA [C6A U7A C9A U10A C44G A45G] is lower in “exon inclusion enrichment index” value: 1.09 for the first, 0.124 for the second.

Going from AGUUGAAGAAGGGAGCUCCAGCACAGUGAAAUGGACAGAAGGGGCGAGCAA [C6A U7A C9A U10A C44G A45C] to AGUUGAAGAAGGGAGCUCCAGCACAGUGAAAUGGACAGAAGGGGUGAGCAA [C6A U7A C9A U10A C44G A45U], the “exon inclusion enrichment index” value falls from 1.44 to 0.598.

First: AGUUGAAGAAGGGAGCUCCAGCACAGUGAAAUGGACAGAAGGGUCGAGCAA [C6A U7A C9A U10A C44U A45C]
Second: AGUUGAAGAAGGGAGCUCCAGCACAGUGAAAUGGACAGAAGGGUGGAGCAA [C6A U7A C9A U10A C44U A45G]
The “exon inclusion enrichment index” value of the first is higher: 1.16 for the first, 0.419 for the second.

Compared with AGUUGAAGAAGGGAGCUCCAGCACAGUGAAAUGGACAGAAGGGUUGAGCAA [C6A U7A C9A U10A C44U A45U], AGUUGAAGAAGAGAGCUCCAGCACAGUGAAAUGGACAGAAGGGCAGAGCAA [C6A U7A C9A U10A G12A] is higher in “exon inclusion enrichment index” value: 0.433 for the first, 1.32 for the second.

Compared with AGUUGAAGAAGUGAGCUCCAGCACAGUGAAAUGGACAGAAGGGCAGAGCAA [C6A U7A C9A U10A G12U], AGUUGAAGAAGCGAGCUCCAGCACAGUGAAAUGGACAGAAGGGCAGAGCAA [C6A U7A C9A U10A G12C] is higher in “exon inclusion enrichment index” value: 0.96 for the first, 2.21 for the second.

Compared with AGUUGAAGAAGGGAGCUCCAGCACAGUGAAAUGGAGUGAAGGGCAGAGCAA [C6A U7A C9A U10A C36G A37U], AGUUGAAGAAGGGAGCUCCAGCACAGUGAAAUGGAGGGAAGGGCAGAGCAA [C6A U7A C9A U10A C36G A37G] is lower in “exon inclusion enrichment index” value: 0.216 for the first, 0.0922 for the second.

Compared with AGUUGAAGAAGGAGGCUCCAGCACAGUGAAAUGGACAGAAGGGCAGAGCAA [C6A U7A C9A U10A G13A A14G], AGUUGAAGAAGGAUGCUCCAGCACAGUGAAAUGGACAGAAGGGCAGAGCAA [C6A U7A C9A U10A G13A A14U] is higher in “exon inclusion enrichment index” value: 1.21 for the first, 1.82 for the second.

Going from AGUUGAAGAAGGACGCUCCAGCACAGUGAAAUGGACAGAAGGGCAGAGCAA [C6A U7A C9A U10A G13A A14C] to AGUUGAAGAAGGGAGCUCCAGCACAGUGAAAUGGAUGGAAGGGCAGAGCAA [C6A U7A C9A U10A C36U A37G], the “exon inclusion enrichment index” value falls from 2.82 to 0.602.

Compared with AGUUGAAGAAGGGAGCUCCAGCACAGUGAAAUGGAUCGAAGGGCAGAGCAA [C6A U7A C9A U10A C36U A37C], AGUUGAAGAAGGGAGCUCCAGCACAGUGAAAUGGAUUGAAGGGCAGAGCAA [C6A U7A C9A U10A C36U A37U] is lower in “exon inclusion enrichment index” value: 0.478 for the first, 0.411 for the second.

Compared with AGUUGAAGAAGAAAGCUCCAGCACAGUGAAAUGGACAGAAGGGCAGAGCAA [C6A U7A C9A U10A G12A G13A], AGUUGAAGAAGACAGCUCCAGCACAGUGAAAUGGACAGAAGGGCAGAGCAA [C6A U7A C9A U10A G12A G13C] is higher in “exon inclusion enrichment index” value: 1.6 for the first, 1.94 for the second.

In the case of AGUUGAAGAAGAUAGCUCCAGCACAGUGAAAUGGACAGAAGGGCAGAGCAA [C6A U7A C9A U10A G12A G13U], the “exon inclusion enrichment index” value is reported as 0.801.
